This note sets out measurements from paper PMC13043311, “2′-O-Methyl-guanosine RNA fragments antagonize TLR7 and TLR8 to limit autoimmunity”.

Usually Kd stands for a measure of binding affinity in units of concentration.

Common to all, as to settings: protein: recombinant; chain copies: 2; single-stranded
Series [1] concerns the target T1, TLR7 WT (mmTLR7) (Macaca mulatta, UniProt B3Y653 27-839).
T1 sequence: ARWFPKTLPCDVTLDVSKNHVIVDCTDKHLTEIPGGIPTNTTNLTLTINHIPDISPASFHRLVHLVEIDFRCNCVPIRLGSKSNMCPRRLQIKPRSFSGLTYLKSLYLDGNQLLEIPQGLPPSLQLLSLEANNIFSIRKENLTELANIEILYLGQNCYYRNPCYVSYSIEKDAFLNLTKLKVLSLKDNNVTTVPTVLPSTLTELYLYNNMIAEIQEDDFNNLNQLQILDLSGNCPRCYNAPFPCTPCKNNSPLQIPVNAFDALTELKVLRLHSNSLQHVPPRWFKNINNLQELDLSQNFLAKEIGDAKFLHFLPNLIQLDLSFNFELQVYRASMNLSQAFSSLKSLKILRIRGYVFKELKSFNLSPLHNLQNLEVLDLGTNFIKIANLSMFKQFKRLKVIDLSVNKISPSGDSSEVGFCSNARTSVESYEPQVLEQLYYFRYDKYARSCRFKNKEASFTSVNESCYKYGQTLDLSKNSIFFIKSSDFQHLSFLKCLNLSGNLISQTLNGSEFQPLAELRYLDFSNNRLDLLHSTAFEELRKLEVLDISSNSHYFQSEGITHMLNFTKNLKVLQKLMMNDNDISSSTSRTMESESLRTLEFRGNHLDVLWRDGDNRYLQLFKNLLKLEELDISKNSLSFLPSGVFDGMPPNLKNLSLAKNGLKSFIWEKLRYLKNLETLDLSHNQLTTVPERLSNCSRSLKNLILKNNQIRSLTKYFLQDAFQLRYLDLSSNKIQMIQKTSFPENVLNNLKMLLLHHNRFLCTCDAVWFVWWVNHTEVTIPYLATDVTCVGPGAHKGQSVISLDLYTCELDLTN
Put plainly: SPR; mean computed from runs 0.9±0.3, 2±0.5, 1.4±0.6; SPR with recombinant TLR7/TLR8; buffer, pH and temperature not in the material.

Series [2] concerns the target T2, TLR7 S530A (Macaca mulatta, UniProt B3Y653 27-839, S530A).
T2 sequence: T1 sequence with S504A
In words: SPR; mean computed from runs 0.1±0.02, 0.2±0.04, 0.2±0.06; SPR with recombinant TLR7/TLR8; buffer, pH and temperature not in the material. In general terms: Surface plasmon resonance follows binding to a sensor surface in real time, without labels.

Series [3] has as its target T1, TLR7 WT (mmTLR7). In words: SPR; control of the nucleoside series; mean computed from runs 1±0.3, 3±0.9, 5±0.8; SPR with recombinant TLR7/TLR8; buffer, pH and temperature not in the material.
Series [4] deals with T3, TLR7 F506L (Macaca mulatta, UniProt B3Y653 27-839, F506L).
T3 sequence: T1 sequence with F480L
Put plainly: SPR; mean computed from runs 4±0.5, 5±0.6, 5±2; SPR with recombinant TLR7/TLR8; buffer, pH and temperature not in the material.

Changes are numbered by the printed parent chain.

B1: mGrUrC PS (XNA)
RNA: GUC
modifications: 2'-OMe G1, RNA U2 C3; phosphorothioate linkages
For the molecule B1, the Kd stood at 1430 nM in series [1], 170 nM in series [2], 3000 nM in series [3] and 4670 nM in series [4].
